Data published in the supplement of paper PMC10724198.

Experiments:
Saccharomyces cerevisiae [1] = assay: protein stability index of tFT-peptide fusion in wild type (PSI (0-1 scale)); higher = more stable (slower turnover); details: genetic background: wild type
Procedure: (§1)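 MPS profiling in S. cerevisiae of two library types built from selected 12-aa C-degron peptides (IN1, IN2, LN1, LN3, VN2, R1-R5, W1-W3, Atg1 and Rpa12 C-termini): saturation mutagenesis libraries and C-terminal +1 capping libraries (13 aa). Each peptide is fused to the C-terminus of a sfGFP-mCherry timer, after a GGGS linker. Cells are FACS-sorted into 8 mCherry/sfGFP bins and sequenced. PSI runs from 0 (unstable) to 1 (stable), measured once in wild type and in the das1Δ or doa10Δ background.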

Saccharomyces cerevisiae [2] = assay: protein stability index of tFT-peptide fusion in deletion strain of DAS1 (PSI (0-1 scale)); higher = more stable (slower turnover)
Procedure: as §1
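Throughout, for protein stability index of tFT-peptide fusion in deletion strain of DAS1: PSI is a weighted mean of each variant's read distribution over the sorted stability bins, computed only for variants having over 10 reads in total.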
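Throughout, for protein stability index of tFT-peptide fusion in wild type: PSI derived as read-weighted mean over the 8 sorting bins, only variants exceeding 10 total reads kept, mCherry placed adjacent to the peptide and sfGFP distal.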

| Sequence | protein stability index (Saccharomyces cerevisiae [1]) | protein stability index (Saccharomyces cerevisiae [2]) |
| --- | --- | --- |
| ACWRVGLWRGAS | 0.445 | 0.694 |
| AGWRVGLWRGAS | 0.424 | 0.722 |
| ALIQPLPVQFLN | 0.101 | 0.649 |
| ALWRVGLWRGAS | 0.464 | 0.707 |
| ARGAVGGWRLVG | 0.172 | 0.653 |
| ARWIVGLWRGAS | 0.398 | 0.684 |
| ARWMVGLWRGAS | 0.449 | 0.709 |
| ARWRAGLWRGAS | 0.653 | 0.7 |
| ARWRIGLWRGAS | 0.327 | 0.671 |
| ARWRVALWRGAS | 0.254 | 0.671 |
| ARWRVCLWRGAS | 0.397 | 0.705 |
| ARWRVGLERGAS | 0.661 | 0.7 |
| ARWRVGLGRGAS | 0.456 | 0.679 |
| ARWRVGLKRGAS | 0.627 | 0.663 |
| ARWRVGLWFGAS | 0.626 | 0.666 |
| ARWRVGLWRFAS | 0.101 | 0.675 |
| ARWRVGLWRGAA | 0.17 | 0.675 |
| ARWRVGLWRGAI | 0.529 | 0.685 |
| ARWRVGLWRGASH | 0.66 | 0.685 |
| ARWRVGLWRGASM | 0.651 | 0.639 |
| ARWRVGLWRGASR | 0.663 | 0.676 |
| ARWRVGLWRGASW | 0.67 | 0.71 |

| Sequence | protein stability index (Saccharomyces cerevisiae [1]) | protein stability index (Saccharomyces cerevisiae [2]) |
| --- | --- | --- |
| ARWRVGLWRGPS | 0.672 | 0.69 |
| ARWRVGLWSGAS | 0.67 | 0.693 |
| ARWRVGLWTGAS | 0.664 | 0.677 |
| ARWRVGWWRGAS | 0.405 | 0.701 |
| ARWRVWLWRGAS | 0.341 | 0.711 |
| ARWVVGLWRGAS | 0.39 | 0.694 |
| ARWYVGLWRGAS | 0.469 | 0.696 |
| CCSCGYKFRTNN | 0.226 | 0.681 |
| CSLAASFWRVVG | 0.125 | 0.69 |
| CTACGYKFRTNN | 0.259 | 0.676 |
| CTDCGYKFRTNN | 0.254 | 0.662 |
| CTHCGYKFRTNN | 0.264 | 0.709 |
| CTSCGGKFRTNN | 0.61 | 0.675 |
| CTSCGYAFRTNN | 0.226 | 0.697 |
| CTSCGYKFFTNN | 0.347 | 0.727 |
| CTSCGYKFNTNN | 0.42 | 0.722 |
| CTSCGYKFRFNN | 0.303 | 0.699 |
| CTSCGYKFRRNN | 0.49 | 0.703 |
| CTSCGYKFRTEN | 0.45 | 0.725 |
| CTSCGYKFRTIN | 0.148 | 0.698 |
| CTSCGYKFRTKN | 0.631 | 0.702 |
